Experimental data taken from PMC9435400.

Legend:
Assay in all cases: SEC
[1] = target: BM48-31 soluble spike ectodomain (2P, GSAS, T4 fibritin trimerization motif) (BM48-31 (sarbecovirus) | bacteriophage T4)
[2] = target: BtKY72 soluble spike ectodomain (2P, GSAS, T4 fibritin trimerization motif) (BtKY72 (sarbecovirus) | bacteriophage T4)
[3] = target: Pang17 soluble spike ectodomain (2P, GSAS, T4 fibritin trimerization motif) (pang17 (sarbecovirus of pangolins) | bacteriophage T4)
[4] = target: Rf1 soluble spike ectodomain (2P, GSAS, T4 fibritin trimerization motif) (Rf1 (sarbecovirus) | bacteriophage T4)
[5] = target: RmYN02 soluble spike ectodomain (2P, GSAS, T4 fibritin trimerization motif) (RmYN02 (sarbecovirus) | bacteriophage T4)
[6] = target: Rs4081 soluble spike ectodomain (2P, GSAS, T4 fibritin trimerization motif) (Rs4081 (sarbecovirus) | bacteriophage T4)
[7] = target: SARS-CoV-1 soluble spike ectodomain (2P, GSAS, T4 fibritin trimerization motif) (SARS-CoV-1 | bacteriophage T4) (UniProt P59594)
[8] = target: Yun11 soluble spike ectodomain (2P, GSAS, T4 fibritin trimerization motif) (Yun11 (sarbecovirus) | bacteriophage T4)

BM48-31 soluble spike ectodomain (2P, GSAS, T4 fibritin trimerization motif) (domain or fragment)
stoichiometry N [1]: 3

BtKY72 soluble spike ectodomain (2P, GSAS, T4 fibritin trimerization motif) (domain or fragment)
stoichiometry N [2]: 3

Pang17 soluble spike ectodomain (2P, GSAS, T4 fibritin trimerization motif) (domain or fragment)
stoichiometry N [3]: 3

Rf1 soluble spike ectodomain (2P, GSAS, T4 fibritin trimerization motif) (domain or fragment)
stoichiometry N [4]: 3

RmYN02 soluble spike ectodomain (2P, GSAS, T4 fibritin trimerization motif) (domain or fragment)
stoichiometry N [5]: 3

Rs4081 soluble spike ectodomain (2P, GSAS, T4 fibritin trimerization motif) (domain or fragment)
stoichiometry N [6]: 3

SARS-CoV-1 soluble spike ectodomain (2P, GSAS, T4 fibritin trimerization motif) (from UniProt P59594 14-1190) (domain or fragment)
stoichiometry N [7]: 3

Yun11 soluble spike ectodomain (2P, GSAS, T4 fibritin trimerization motif) (domain or fragment)
stoichiometry N [8]: 3
